Consider 2 molecules from PMC8223116, “A novel G-quadruplex aptamer-based spike trimeric antigen test for the detection of SARS-CoV-2”.

The target in the series is SARS-CoV-2 spike RBD (SARS-CoV-2, UniProt P0DTC2 319-541). Kind of series: ALISA.

With TCGTTGGTGGCGGCGTGCCCGGGGCACGGGGACGTCTCGCACGGC (ssDNA) [S13 truncated (45-mer)], the binding result is listed as “no binding”.

As to TGGGAGCCTGGGACATAGTGGGGAAAGAGGGGAAGAGTGGGTCT (structured_DNA) [S14 truncated (44-mer)], the binding result is “no binding”.
